Measurements taken from US11312769B2, “Anti-TMEFF1 antibodies and antibody drug conjugates” (Bluefin BioMedicine, Inc., priority 2017, dated 2022).
Numbering of substitutions follows the chain as printed.

T1: recombinant TMEFF1 (Homo sapiens, UniProt Q8IYR6)
T1 construct: generated to secrete the ECD from CHO cells to assist with biophysical evaluations; His tag (C); made in house; host or cells: CHO (ExpiCHO)
T1 sequence (Q8IYR6 40-330 limits assumed): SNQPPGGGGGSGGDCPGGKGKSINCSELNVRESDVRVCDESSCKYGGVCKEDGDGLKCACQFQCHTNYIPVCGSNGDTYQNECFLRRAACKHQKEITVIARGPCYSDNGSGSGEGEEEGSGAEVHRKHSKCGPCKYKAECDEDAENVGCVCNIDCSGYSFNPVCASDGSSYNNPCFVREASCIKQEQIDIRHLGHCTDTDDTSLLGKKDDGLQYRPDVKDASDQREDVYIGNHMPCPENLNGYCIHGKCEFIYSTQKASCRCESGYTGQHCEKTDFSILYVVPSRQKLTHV

B1: 24F10: human anti-TMEFF1 IgG1 antibody; VH SEQ ID NO: 33, VL SEQ ID NO: 36 (antibody, V domains shown)
VH: QVQLVESGGGVVQPGRSLRLSCAASGFTFSSYGMHWVRQAPGKGLEWVAVIWYDGSDKYYTDSVKGRFTISRDNSKNTLYLQMNSLRAEDTAVYYCARESMVRGIVITFFDYWGQGTLVTVSS
VL: EIVMTQSPATLSVSPGERATLSCRASQSVSSNLAWYQQKPGQAPRLLIYGASTRATGIPARFSGSGSGTEFTLTISSLQSEDFAVYSCQHYNNWPPTFGGGTKVEIK
B2: M1F1: human anti-TMEFF1 IgG1 antibody; VH SEQ ID NO: 9, VL SEQ ID NO: 13 (antibody, V domains shown)
VH: QVQLQESGPGLVKPSETLSLTCAVSGYSISSGYFWGWIRQPPGKKLEWIGSIYHSGSTYYNPSLKSRVTMSVDTSKNQFSLKLSSVTAADTAVYYCAREGDCSGGICYWYFDLWGRGTLVTVSS
VL: B1 VL with F71V, S87Y, H90Q, N93K, P96L
B3: 36H6: human anti-TMEFF1 IgG1 antibody; VH SEQ ID NO: 43, VL SEQ ID NO: 47 (antibody, V domains shown)
VH: QVQLVESGGGVVQPGRSLRLSCAASGFTFSDYGMHWVRQAPGKGLEWVAVIWYEGGNKYYTDSVKGRFTISRDNSKNTLYLQMNSLRAEDTAVYYCARILLWFGESYGMDVWGQGTTVTVSS
VL: DIQMTQSPSSLSASVGDRVTITCRASQGISNYLAWYQQKPGKVPKLLIYAASTLQSGVPSRFSGSGSGTDFTLTISSLQPEDVATYYCQKYNNAPWTFGQGTKVEIK
B4: 31B7: human anti-TMEFF1 IgG1 antibody; VH SEQ ID NO: 17, VL SEQ ID NO: 21 (antibody, V domains shown)
VH: QVQLVESGGGVVQPGRSLRLSCAASGFTFSSYGMHWVRQAPGKGLEWVAVIWYNGINKYYADSVKGRFTISRDASKNTLYLQMNSLRAEDTAVYYCAREGLLWFGGMDVWGQGTTVTVSS
VL: EIVLTQSPLSLPVTPGEPASISCRSSQSLLHSNGYNYLHWYLQKPGQSPQLLIYLGSNRASGVPDRFSGSRSGTDFTLKIIRVEAEDVGVYYCMQALQTPYTFGQGTKLEIK

How the values were obtained:
293-hTMEFF1 cells = experiment: Flow based antibody internalization assay; assay type: cell-based, human; settings: 293-hTMEFF1 fixed with PFA, antibody 1 ug/ml, 30-120 min
Protocol: For Flow based internalization assay, 293-hTMEFF1 cells were collected and either fixed with 4% paraformaldehyde (PFA) for 20 minutes at 37° C. or kept live on ice. Cells were then incubated on ice for 40 minutes with anti-TMEFF1 antibody at 1 ug/ml, washed 2× with ice cold PBS, resuspended in complete warm media and incubated at 37° C. for 30, 60 or 120 minutes. Live cells were then fixed at those time points, washed 2× with PBS and labeled with fluorescent conjugated secondary antibody for 30 minutes on ice.
Antibody mediated TMEFF1 internalization was evaluated by Flow cytometry with five human anti-TMEFF1 antibodies in 293-hTMEFF1 cells. Fixed cells were treated with the antibody as a control of antibody loss due to detachment rather than internalization which would result in reduce signal. Thus a constant signal over time in fixed cells and a loss of signal in live cells would indicate antibody internalization. […] In live cells, it was observed that most antibodies show about a 50% internalization by 30 min of treatment (FIG. 1B).

[1] = test system: hTMEFF1-ECD recombinant deletion mutants; experiment: Binding domain determination with hTMEFF1-ECD deletion mutants (Octet); design: species or system human; key: FS1—follistatin domain 1; FS2—follistatin domain 2; settings: full length TMEFF1 ECD vs ΔFS1, ΔFS2, ΔFS1&FS2
Source text: TMEFF1 recombinant proteins expressing 3 different deletion mutants, AFS1 (AFollistatin Domain 1), AFS2 (AFollistatin Domain 2) or AFS1&FS2 were used to identify binding domains among different antibodes using an Octet Red instrument with Anti-Penta-His (HIS 1K) biosensors. Expression of the 3 deletion mutants was confirmed by WB analysis. 100 ngs of purified TMEFF1 ECD was run along with unpurified supernatant of transfected CHO cells with the different deletion mutants. HIS 1K biosensors were loaded by submerging the biosensors into wells containing 10 ug/ml of full length TMEFF1 or one of 3 different deletion mutants (AFS1, AFS2 or AFS1&FS2) for 60 seconds. Following the loading step, the biosensors were then dipped for 30 seconds in PBS before immersion for 30 seconds in 200 ul of unpurified recombinant antibodies for 30 seconds. The biosensors were then dipped briefly (30 seconds) in PBS to observe any dissociation. Samples were determined to show binding or no binding by comparing to a control well that contained no recombinant antibody. Differential binding to the deletion mutants allowed for determination of binding sites on TMEFF1 recombinant protein. For cases where the antibody bound all 3 recombinant proteins, the binding is outside of the deleted domains. For the case where binding is observed only on full length TMEFF1 and AFS2, the antibody is binding in the ΔFS1 domain.
26 of the identified antibodies were checked for epitope domain binding by Octet™ using the hTMEFF1-ECD recombinant deletion mutants (see Table 7, below).

recombinant TMEFF1 = target: T1, recombinant TMEFF1; experiment: Binding competition binning (Octet); settings: seven antibodies, 3 bins
Protocol: Binding competition among different antibodies was determined using a real-time, interferometry assay on an Octet Red™ instrument with Protein A-conjugated biosensors. To assess whether two antibodies competed for binding to a recombinant TMEFF1 protein, the assay was performed as follows. Protein A biosensors were first submerged into wells containing 10 ug/mL of individual monoclonal antibodies for 5 minutes. Following the capture step, the biosensors were dipped briefly (15 seconds) into buffer and then any unoccupied sites on the biosensor were saturated by submerging them for 5 minutes into wells containing 100 ug/mL of an irrelevant monoclonal antibody. The Octet biosensors were then dipped briefly (15 seconds) in buffer before immersion for 1 minute into wells containing recombinant TMEFF1. The biosensors were dipped briefly (15 seconds) in buffer before immersion for 1 minute into wells containing a second recombinant antibody.
For the control case where the second antibody was the same as the first, there was no increase in signal, because there was no additional binding to the recombinant target.
For the control case where buffer was used instead of the first antibody, no recombinant target bound the non-quenching antibody on the biosensor and no second antibody bound the biosensor.
Competition binning using Octet™ was done with seven antibodies and 3 separate bins were identified.

Molecule | Cell surface binding in fixed cells over the duration of the assay (293-hTMEFF1 cells) | Binding region (epitope domain binding) [1] | Competition binning (epitope bin) (recombinant TMEFF1)
B1 | consistent cell surface binding in fix cells | FS1 | compete with each other and bind FS1
B2 | – | Other | bind a region different from FS1 or FS2 and compete with each other
B3 | consistent cell surface binding in fix cells | FS1 | compete with each other and bind FS1
B4 | consistent cell surface binding in fix cells | other | bind a region different from FS1 or FS2 and compete with each other
